Assay results from patent US20050042607A1, “Parkin protein as ubiquitin ligase” (priority 2000, published 2005).
Where a chain is given by its changes, count along the chain named. Names and notes keep the numbering of the source. “Also recorded” adds a separate entry of the source.

B1: Parkin: Protein of 465 amino acids encoded by parkin, with N-terminal ubiquitin-like domain and C-terminal RING-box; used Myc-labeled (protein, UniProt O60260 1-465, looked up)
E3 ubiquitin-protein ligase …: MIVFVRFNSSHGFPVEVDSDTSIFQLKEVVAKRQGVPADQLRVIFAGKELRNDWTVQNCDLDQQSIVHIVQRPWRKGQEMNATGGDDPRNAAGGCEREPQSLTRVDLSSSVLPGDSVGLAVILHTDSRKDSPPAGSPAGRSIYNSFYVYCKGPCQRVQPGKLRVQCSTCRQATLTLTQGPSCWDDVLIPNRMSGECQSPHCPGTSAEFFFKCGAHPTSDKETSVALHLIATNSRNITCITCTDVRSPVLVFQCNSRHVICLDCFHLYCVTRLNDRQFVHDPQLGYSLPCVAGCPNSLIKELHHFRILGEEQYNRYQQYGAEECVLQMGGVLCPRPGCGAGLLPEPDQRKVTCEGGNGLGCGFAFCRECKEAYHEGECSAVFEASGTTTQAYRVDERAAEQARWEAASKETIKKTTKPCPRCHVPVEKNGGCMHMKCPQPQCRLEWCWNCGCEWNRVCMGDHWFDV
modifications: Myc tag
notes: Protein of 465 amino acids encoded by parkin, with N-terminal ubiquitin-like domain and C-terminal RING-box; used Myc-labeled
B2: Parkin^R42P: Missense Parkin variant from AR-JP patient, No. 42 arginine replaced with proline (ubiquitin-like domain variant) (protein, UniProt O60260 1-465, looked up, variant R42P)
E3 ubiquitin-protein ligase …: B1 E3 ubiquitin-protein ligase … with R42P
B3: Parkin^T240R: Missense Parkin variant from AR-JP patient, No. 240 threonine replaced with arginine (RING1 domain) (protein, UniProt O60260 1-465, looked up, variant T240R)
E3 ubiquitin-protein ligase …: B1 E3 ubiquitin-protein ligase … with T240R

Legend:
[1] = target: T1, UbcH8 (Homo sapiens, UniProt O14933); experiment: Co-immunoprecipitation of Myc-Parkin with UbcH8 expressed in HEK293 cells; assay type: binding; details: 48 hours after transfection, IP with antiMyc antibody
T1 construct: expressed in transfected cells; host or cells: HEK293
T1 sequence (O14933 whole entry): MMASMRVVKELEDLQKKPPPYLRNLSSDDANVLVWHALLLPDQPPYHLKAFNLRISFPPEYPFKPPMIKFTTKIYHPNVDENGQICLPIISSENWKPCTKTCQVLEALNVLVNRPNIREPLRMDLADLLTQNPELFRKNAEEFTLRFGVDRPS
Protocol: (§1) For preparing pcDNA3.1(+)Myc and pcDNA3.1(+)FLAG vectors, oligo DNA encoding N-terminal Myc and FLAG epitopes was ligated at KpnI/BamHI domain of pcDNA3.1(+) (Invitrogen). After the amplification of wild type parkin or N-terminal-deficient variant, Ubc2(HHR6B), UbcH8 and cDNA of ubiquitin with a suitable primer, they were ligated in BamHI domain of the vector. The C-terminal-deficient variant and missense variant of parkin were prepared by introducing a variation into pcDNA3.1(+)Myc-Parkin by using a Quik Change domain specific variation inducing kit (Stratagene) according to a manual. pCAGGS-Ubc3 was already reported [Iwai K. et al., Proc. Natl. Acad. Sci. USA 96, 12436-12441 (1999)].
(§2) pCGN-Ubc4 and other pcDNA3.1(+)FLAG-Ubc were prepared from human liver cDNA library by an ordinary method. Ubc used was obtained from human beings in all the cases. […]
(§3) The following test was conducted to find whether Parkin concerns the ubiquitin pathway or not. To find whether the interaction between Parkin and each of various E2 enzymes occurs or not, Myc-labeled parkin was expressed together with various E2 enzymes labeled with FLAG, HA or His at different domains in HEK293 cells, and the interaction of them was detected by the immunoprecipitation The results are shown in FIG. 1. […]

[2] = target: T2, UbcH7 (Homo sapiens, UniProt P68036); experiment: Co-immunoprecipitation of Myc-Parkin with FLAG-UbcH7 expressed in HEK293 cells; assay type: binding; details: 48 hours after transfection, IP with antiMyc antibody
T2 construct: expressed in transfected cells; host or cells: HEK293
T2 sequence (P68036 whole entry): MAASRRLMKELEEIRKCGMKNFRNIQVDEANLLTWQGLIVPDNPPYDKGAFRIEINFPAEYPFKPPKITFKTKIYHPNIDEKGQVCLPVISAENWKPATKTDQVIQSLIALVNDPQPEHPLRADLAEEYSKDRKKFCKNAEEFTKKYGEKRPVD
Protocol: as §1
(§4) pCGN-Ubc4 and other pcDNA3.1(+)FLAG-Ubc were prepared from human liver cDNA library by an ordinary method. Ubc used was obtained from human beings in all the cases. Human fetal kidney 293 (HEK293) cells and human dopamigenergic neuroblastoma SH-SY5Y cells were cultured in DMEM containing 10% bovine fetal serum, 10 μg/ml streptomycin and 100 U/ml penicillin.
The transfection was carried out by using FuGENE6 transfection reagent according to the producer (Boehringer-Mannheim)'s manual. […]
The following test was conducted to find whether Parkin concerns the ubiquitin pathway or not. To find whether the interaction between Parkin and each of various E2 enzymes occurs or not, Myc-labeled parkin was expressed together with various E2 enzymes labeled with FLAG, HA or His at different domains in HEK293 cells, and the interaction of them was detected by the immunoprecipitation The results are shown in FIG. 1.
Concretely, pcDNA3.1(+)Myc-Parkin ([…]) was transfected in HEK293 cells simultaneously with various expression vectors encoding FLAG-, His- or HA-Ubc in an amount shown in the parentheses in FIG. 1. […] The cell extracts (upper panel in FIG. 1) and immunoprecipitates (middle and lower panels in FIG. 1) were analyzed by the immunoblotting with various antibodies as shown in FIG. 1. […]

[3] = target: T3, Ubc3 (Homo sapiens, UniProt P49427); experiment: Co-immunoprecipitation of Myc-Parkin with Ubc3 expressed in HEK293 cells; assay type: binding; details: IP with antiMyc antibody
T3 construct: expressed in transfected cells; host or cells: HEK293
T3 sequence (P49427 1-236): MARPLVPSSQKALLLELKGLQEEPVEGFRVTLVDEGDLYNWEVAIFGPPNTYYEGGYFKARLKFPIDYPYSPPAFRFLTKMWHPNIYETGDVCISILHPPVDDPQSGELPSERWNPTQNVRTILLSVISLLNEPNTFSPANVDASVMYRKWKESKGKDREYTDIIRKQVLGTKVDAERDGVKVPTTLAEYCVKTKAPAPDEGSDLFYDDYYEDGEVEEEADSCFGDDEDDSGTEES
Protocol: as §1, §2, §3

[4] = target: T4, UbcH6 (Homo sapiens, UniProt P51965); experiment: Co-immunoprecipitation of Myc-Parkin with UbcH6 expressed in HEK293 cells; assay type: binding; details: IP with antiMyc antibody
T4 construct: expressed in transfected cells; host or cells: HEK293
T4 sequence (P51965 whole entry): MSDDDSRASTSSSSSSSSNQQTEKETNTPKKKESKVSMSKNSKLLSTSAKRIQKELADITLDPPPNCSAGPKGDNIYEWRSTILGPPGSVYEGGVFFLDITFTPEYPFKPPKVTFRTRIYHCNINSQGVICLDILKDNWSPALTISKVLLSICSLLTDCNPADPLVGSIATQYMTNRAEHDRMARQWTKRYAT
Protocol: as §1, §2, §3

[5] = test system: UbcH5A-C; experiment: Co-immunoprecipitation of Myc-Parkin with UbcH5A-C expressed in HEK293 cells; assay type: binding, human; details: IP with antiMyc antibody
Protocol: as §1, §2, §3

[6] = target: T5, Ubc2 (Homo sapiens, UniProt P63146); experiment: Co-immunoprecipitation of Myc-Parkin with Ubc2 expressed in HEK293 cells; assay type: binding; details: IP with antiMyc antibody
T5 construct: expressed in transfected cells; host or cells: HEK293
T5 sequence (P63146 whole entry): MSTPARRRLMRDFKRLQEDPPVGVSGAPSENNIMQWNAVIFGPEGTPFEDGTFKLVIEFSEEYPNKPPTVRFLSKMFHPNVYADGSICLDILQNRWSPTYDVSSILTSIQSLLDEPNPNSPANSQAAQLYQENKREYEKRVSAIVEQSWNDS
Protocol: as §1, §2, §3

[7] = test system: Ubc4; experiment: Co-immunoprecipitation of Myc-Parkin with Ubc4 expressed in HEK293 cells; assay type: binding, human; details: IP with antiMyc antibody
Protocol: as §1, §2, §3

[8] = test system: HEK293 fetal kidney cell; experiment: Association of FLAG-ubiquitinated cell protein with Myc-Parkin in HEK293 cells; assay type: cell-based, human; details: HEK293 fetal kidney cell extract, same analysis as in SH-SY5Y
Protocol: as §4
(§5) The transfection was carried out by using FuGENE6 transfection reagent according to the producer (Boehringer-Mannheim)'s manual. The cells were treated with MG132 (Cbz-Leu-Leu-Leu-aldehyde) (Peptide Institute, Inc., Osaka, Japan) having a final concentration of 50 μM.
(§6) The immunoprecipitation was conducted with rabbit polyclonal antiMyc antibodies (A-14) (Santa Cruz Biotechnology) as previously reported [Suzuki H. et al., Biochem. Biophys. Res. Commun. 256, 127-132 (1999)]. The immunoblotting was conducted with biotin linked mouse monoclonal antiFLAG(M2) antibody (SIGMA), mouse monoclonal antiMyc antibody (9E10) (Santa Cruz Biotechnology), mouse monoclonal antiHA antibody (HA.11) (Berkeley Antibody Company) or mouse monoclonal antiHis antibody (RGS.His) (QIAGEN). Streptoavidin/horseradish peroxidase complex (Amersham Pharmacia Biotech) was used for detecting biotin-linked antiFLAG(M2) antibody.
(§7) At first, 10 μg of pcDNA3.1(+)Myc-parkin and 10 μg of pcDNA3.1(+)FLAG-ubiquitin vector were simultaneously transfected into SH-SY5Y cells. […]

[9] = test system: human dopamigenergic neuroblastoma SH-SY5Y cells; experiment: Association of FLAG-ubiquitinated cell protein with Myc-Parkin in SH-SY5Y cells (antiMyc immunoprecipitation, antiFLAG immunoblotting); assay type: cell-based
Protocol: as §1, §4, §5, §6, §7

[10] = SH-SY5Y cells treated with proteasome inhibitor MG132 (50 μM)

| Molecule | association (co-immunoprecipitation) with UbcH8 [1] | association (co-immunoprecipitation) with UbcH7 [2] | association (co-immunoprecipitation) with Ubc3 [3] | association (co-immunoprecipitation) with UbcH6 [4] | association (co-immunoprecipitation) with UbcH5A-C [5] | association (co-immunoprecipitation) with Ubc2 [6] | association (co-immunoprecipitation) with Ubc4 [7] | ubiquitinated protein bands associated with Parkin [8] | ubiquitinated protein bands associated with Parkin [9, 10] | ubiquitinated protein bands associated with Parkin ([9]; SH-SY5Y cells, no treatment with inhibitor) |
| --- | --- | --- | --- | --- | --- | --- | --- | --- | --- | --- |
| B1 | not detected under ordinary conditions; also recorded: UbcH8 immunoprecipitation was weak | immunoprecipitated together with Parkin | no detectable linkage | no detectable linkage | no detectable linkage | no detectable linkage | no detectable linkage | no ubiquitinated band linked with Parkin was observed | ubiquitinated bands including high-molecular ubiquitinated proteins, were detected | no ubiquitinated band was found |
| B2 | – | could be linked with UbcH7 | – | – | – | – | – | – | substantially completely lost the association with the ubiquitinated protein | – |
| B3 | – | did not interact with UbcH7 | – | – | – | – | – | – | – | – |
